Experimental data taken from article PMC9457330 (Proceedings of the National Academy of Sciences of the …, 2022).

Target: the molecule itself
Experiment: native gel or EMSA

B1: SLC25A11 (endogenous, mouse) (natural protein, UniProt Q9CR62 1-314, looked up)
chain: MAATASPGAGRMDGKPRTSPKSVKFLFGGLAGMGATVFVQPLDLVKNRMQLSGEGAKTREYKTSFHALTSILKTEGLKGIYTGLSAGLLRQATYTTTRLGIYTVLFERLTGADGTPPGFLLKALIGMTAGATGAFVGTPAEVALIRMTADGRLPADQRRGYKNVFNALVRIAREEGVPTLWRGCIPTMARAVVVNAAQLASYSQSKQFLLDSGYFSDNILCHFCASMISGLVTTAASMPVDIVKTRIQNMRMIDGKPEYKNGLDVLLKVVRYEGFFSLWKGFTPYYARLGPHTVLTFIFLEQMNKAYKRLFLSG
stoichiometry N: 2
